Reference: US6908994 (TEXAS A AND M UNIVERSITY SYSTEM, dated 2005)
Read-outs that look alike come from different tables or passages of the source.

Assays:
Collagen type IV (CIV) [1] = test: cell-based or functional assay
[2] = target: Mouse laminin (isolated from the EHS-sarcoma) (mouse) (UniProt P19137); test: cell-based or functional assay
[3] = target: Bovine serum albumin (BSA) (bovine) (UniProt P02769); test: cell-based or functional assay
Collagen type IV (CIV) [4] = test: cell-based or functional assay; remark: listed apart in the source
[5] = target: Ace of E. faecalis strain OG1RF (native; on 46°C grown cells and in mutanolysin extracts) (Enterococcus faecalis strain OG1RF); test: cell-based or functional assay
[6] = target: Ace of E. faecalis strain OG1RF (native; on 46°C grown cells and in mutanolysin extracts) (Enterococcus faecalis strain OG1RF); test: cell-based or functional assay; remark: listed apart in the source
[7] = target: Ace of E. faecalis strain V583 (native; on cells and in mutanolysin extracts) (Enterococcus faecalis strain V583); test: cell-based or functional assay
[8] = target: Ace of E. faecalis strain MC02152 (native; on cells and in mutanolysin extracts) (Enterococcus faecalis strain MC02152); test: cell-based or functional assay
Collagen type I (CI) = test: ELISA, 10 µg immobilised CI, bound His-tagged Ace A detected with penta-His monoclonal antibody, OD450
[9] = target: Mouse laminin (isolated from the EHS-sarcoma) (mouse) (UniProt P19137); test: ELISA, 10 µg immobilised LN, bound His-tagged Ace A detected with penta-His monoclonal antibody, OD450
[10] = target: T1, Bovine Type I collagen (Collagen Corp.), immobilised on a CM5 chip (bovine, UniProt P02453 162-1217; P02465 80-1117); test: SPR (BIAcore 1000), Scatchard analysis of equilibrium responses, 1-70 µM Ace A over immobilised collagen; three measurements
T1 construct: Bought, predissolved in 0.1 M HCl
T1 sequence (P02453 162-1217 limits assumed, chain 1 of 2): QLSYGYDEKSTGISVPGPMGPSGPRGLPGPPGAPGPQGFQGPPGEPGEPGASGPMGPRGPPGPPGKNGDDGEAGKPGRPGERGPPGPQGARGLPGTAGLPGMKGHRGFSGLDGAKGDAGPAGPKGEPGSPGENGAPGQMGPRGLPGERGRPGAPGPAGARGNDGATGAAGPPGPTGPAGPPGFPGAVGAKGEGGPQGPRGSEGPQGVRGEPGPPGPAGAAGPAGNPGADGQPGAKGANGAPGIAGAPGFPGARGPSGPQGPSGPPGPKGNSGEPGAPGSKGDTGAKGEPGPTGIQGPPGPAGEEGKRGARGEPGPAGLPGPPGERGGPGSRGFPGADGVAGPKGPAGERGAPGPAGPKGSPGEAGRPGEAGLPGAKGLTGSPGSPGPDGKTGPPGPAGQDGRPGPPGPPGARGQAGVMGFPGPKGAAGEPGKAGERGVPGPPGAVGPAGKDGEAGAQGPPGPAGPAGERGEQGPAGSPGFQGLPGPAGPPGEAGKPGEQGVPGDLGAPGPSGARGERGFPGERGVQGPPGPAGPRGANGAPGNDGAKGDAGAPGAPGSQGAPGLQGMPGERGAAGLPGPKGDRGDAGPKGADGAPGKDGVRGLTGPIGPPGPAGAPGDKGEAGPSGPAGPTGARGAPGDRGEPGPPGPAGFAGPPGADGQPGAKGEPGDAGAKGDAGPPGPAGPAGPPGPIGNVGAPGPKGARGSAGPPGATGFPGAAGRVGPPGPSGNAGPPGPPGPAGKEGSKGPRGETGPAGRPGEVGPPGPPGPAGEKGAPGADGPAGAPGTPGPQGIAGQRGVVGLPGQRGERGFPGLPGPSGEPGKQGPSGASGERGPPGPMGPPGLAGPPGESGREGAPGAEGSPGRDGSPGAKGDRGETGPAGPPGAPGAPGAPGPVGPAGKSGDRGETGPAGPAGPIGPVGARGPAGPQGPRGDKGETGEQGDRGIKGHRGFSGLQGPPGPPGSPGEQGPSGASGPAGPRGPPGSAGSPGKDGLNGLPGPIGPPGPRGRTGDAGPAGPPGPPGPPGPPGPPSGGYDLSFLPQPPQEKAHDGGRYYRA
T1 sequence (P02465 80-1117 limits assumed, chain 2 of 2): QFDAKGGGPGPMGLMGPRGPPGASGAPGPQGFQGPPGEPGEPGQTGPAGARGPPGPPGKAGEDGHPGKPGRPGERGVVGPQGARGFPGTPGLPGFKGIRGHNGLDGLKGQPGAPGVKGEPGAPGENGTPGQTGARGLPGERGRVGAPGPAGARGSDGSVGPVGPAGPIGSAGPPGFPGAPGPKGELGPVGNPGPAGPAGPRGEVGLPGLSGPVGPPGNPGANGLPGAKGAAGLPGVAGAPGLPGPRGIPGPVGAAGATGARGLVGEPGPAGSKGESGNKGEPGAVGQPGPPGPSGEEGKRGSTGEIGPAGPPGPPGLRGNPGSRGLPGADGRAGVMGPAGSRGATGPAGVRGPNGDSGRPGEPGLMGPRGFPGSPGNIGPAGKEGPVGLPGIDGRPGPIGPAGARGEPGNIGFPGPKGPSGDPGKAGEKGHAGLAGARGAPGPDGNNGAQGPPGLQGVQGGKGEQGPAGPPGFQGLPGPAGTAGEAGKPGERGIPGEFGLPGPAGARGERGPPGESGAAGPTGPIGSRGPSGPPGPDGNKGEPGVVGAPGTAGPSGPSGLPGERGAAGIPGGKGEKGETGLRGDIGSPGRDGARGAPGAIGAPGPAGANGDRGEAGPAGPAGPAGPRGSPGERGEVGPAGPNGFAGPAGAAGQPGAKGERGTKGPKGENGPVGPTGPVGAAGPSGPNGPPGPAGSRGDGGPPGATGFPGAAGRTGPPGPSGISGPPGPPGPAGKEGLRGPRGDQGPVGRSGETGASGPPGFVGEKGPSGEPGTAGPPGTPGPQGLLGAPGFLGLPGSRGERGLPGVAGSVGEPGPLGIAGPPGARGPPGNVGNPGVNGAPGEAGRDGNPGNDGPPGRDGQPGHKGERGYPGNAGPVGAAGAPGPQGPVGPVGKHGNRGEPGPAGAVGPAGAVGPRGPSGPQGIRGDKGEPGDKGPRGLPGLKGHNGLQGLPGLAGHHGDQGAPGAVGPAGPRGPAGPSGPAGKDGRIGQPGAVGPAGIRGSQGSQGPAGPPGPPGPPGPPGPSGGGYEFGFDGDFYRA

[11] = target: Mouse laminin (isolated from the EHS-sarcoma) (mouse, UniProt P19137 25-3083; P02469 22-1786; P02468 34-1607); test: cell-based or functional assay

Bovine serum albumin (BSA) (bovine), sequence (P02769 25-607 limits assumed): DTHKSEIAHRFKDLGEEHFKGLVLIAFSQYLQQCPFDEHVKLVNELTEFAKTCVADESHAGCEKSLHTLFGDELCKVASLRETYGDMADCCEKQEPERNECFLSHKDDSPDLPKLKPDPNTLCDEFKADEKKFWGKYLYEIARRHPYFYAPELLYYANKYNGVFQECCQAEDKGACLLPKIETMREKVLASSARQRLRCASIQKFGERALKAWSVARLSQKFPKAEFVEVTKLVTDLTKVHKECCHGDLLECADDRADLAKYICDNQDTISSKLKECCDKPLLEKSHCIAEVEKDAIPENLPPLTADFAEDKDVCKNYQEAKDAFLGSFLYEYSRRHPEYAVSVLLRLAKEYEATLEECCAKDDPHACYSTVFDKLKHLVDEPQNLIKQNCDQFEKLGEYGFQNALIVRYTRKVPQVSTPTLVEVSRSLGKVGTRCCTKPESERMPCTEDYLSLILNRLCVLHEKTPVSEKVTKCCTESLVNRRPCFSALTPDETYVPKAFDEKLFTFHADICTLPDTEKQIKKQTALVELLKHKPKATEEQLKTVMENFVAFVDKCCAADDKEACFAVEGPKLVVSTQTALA

Work on “Ace of E. faecalis strain END6 (mutanolysin extract)” yielded a % adherence of 46°C grown END6 to CIV (Collagen type IV (CIV) [1]) of over 20% and a % adherence of 46°C grown END6 to LN [2] of over 20%.

Molecule “Ace of E. faecalis strain JH2-2 (mutanolysin extract)” has a % adherence of 46°C grown JH2-2 to CIV (Collagen type IV (CIV) [1]) of over 20% and a % adherence of 46°C grown JH2-2 to LN [2] of over 20%.

With “Ace of E. faecalis strain MC02152 (native; on cells and in mutanolysin extracts)” the % of MC02152 cells bound to BSA; no IgG (% of cells bound) [3] was 0.6, the % adherence of 46°C grown MC02152 to CIV (Collagen type IV (CIV) [1]) was over 20% and the % of 37°C grown MC02152 cells bound to CIV (Collagen type IV (CIV) [1]) was 8.9%. It also gave a % of 46°C grown MC02152 cells bound to CIV (Collagen type IV (CIV) [1]) of 38%, a % of MC02152 cells bound to CIV; no IgG (% of cells bound) (Collagen type IV (CIV) [1]) of 27.7 and a % adherence of 46°C grown MC02152 to LN [2] of over 20%. For the same molecule, the % of 37°C grown MC02152 cells bound to LN [2] was 7.1%, the % of 46°C grown MC02152 cells bound to LN [2] was 41% and the % of MC02152 cells bound to LN; no IgG (% of cells bound) [2] was 26.7.

“Ace of E. faecalis strain MD9 (mutanolysin extract)” was tested, and the % adherence of 46°C grown MD9 to CIV (Collagen type IV (CIV) [1]) was over 20% and the % adherence of 46°C grown MD9 to LN [2] was over 20%.

For “Ace of E. faecalis strain OG1RF (native; on 46°C grown cells and in mutanolysin extracts)”, the % of OG1RF cells bound to CIV; no IgG (% of cells bound) (Collagen type IV (CIV) [4]) was 29.6, the % of OG1RF cells bound to CIV; no IgG (% of cells bound) (Collagen type IV (CIV) [1]) was 27.7 and the fold decrease of adherence to CIV in ace mutant TX5256 against OG1RF (Collagen type IV (CIV) [1]) was 27.4 fold.

Work on “Ace of E. faecalis strain V583 (native; on cells and in mutanolysin extracts)” yielded a % of V583 cells bound to BSA; no IgG (% of cells bound) [3] of 0.7, a % adherence of 46°C grown V583 to CIV (Collagen type IV (CIV) [1]) of over 20% and a % of V583 cells bound to CIV; no IgG (% of cells bound) (Collagen type IV (CIV) [1]) of 38.1. The % adherence of 46°C grown V583 to LN [2] was over 20% and the % of V583 cells bound to LN; no IgG (% of cells bound) [2] was 29.4.

In the case of “IgGs purified from pooled normal human sera collected from healthy volunteers (antibody)”, the % of OG1RF cells bound to BSA; NHS IgG 0.1 mg/ml (% of cells bound) [5] is reported as 0.9, the % of OG1RF cells bound to BSA; NHS IgG 1 mg/ml (% of cells bound) [5] is reported as 0.7 and the % of OG1RF cells bound to BSA; NHS IgG 2 mg/ml (% of cells bound) [5] is reported as 0.7. For the same molecule, the % of OG1RF cells bound to BSA; NHS IgG 4 mg/ml (% of cells bound) [5] was 0.8, the % of OG1RF cells bound to CIV; NHS IgG 0.1 mg/ml (% of cells bound) [5] was 24.8 and the % of OG1RF cells bound to CIV; NHS IgG 1 mg/ml (% of cells bound) [5] was 25.6. It also gave a % of OG1RF cells bound to CIV; NHS IgG 2 mg/ml (% of cells bound) [5] of 24, a % of OG1RF cells bound to CIV; NHS IgG 4 mg/ml (% of cells bound) [5] of 25.6 and a % of OG1RF cells bound to LN; NHS IgG 0.1 mg/ml (% of cells bound) [5] of 31.5. The % of OG1RF cells bound to LN; NHS IgG 1 mg/ml (% of cells bound) [5] was 31.3, the % of OG1RF cells bound to LN; NHS IgG 2 mg/ml (% of cells bound) [5] was 31.3 and the % of OG1RF cells bound to LN; NHS IgG 4 mg/ml (% of cells bound) [5] was 31.4.

In the case of “Preimmune rabbit serum and IgGs purified from it (Example 2) (antibody)”, the % of OG1RF cells bound to BSA; PI IgG 0.001 µg/ml (% of cells bound) [6] is reported as 0.7, the % of OG1RF cells bound to BSA; PI IgG 0.01 µg/ml (% of cells bound) [6] is reported as 0.1 and the % of OG1RF cells bound to BSA; PI IgG 0.1 µg/ml (% of cells bound) [6] is reported as 0.6. The % of OG1RF cells bound to BSA; PI IgG 1 µg/ml (% of cells bound) [6] was 0.8, the % of OG1RF cells bound to BSA; PI IgG 10 µg/ml (% of cells bound) [6] was 0.6 and the % of OG1RF cells bound to BSA; PI IgG 100 µg/ml (% of cells bound) [6] was 0.6. The % of OG1RF cells bound to CIV; PI IgG 0.001 µg/ml (% of cells bound) [6] was 30.3, the % of OG1RF cells bound to CIV; PI IgG 0.01 µg/ml (% of cells bound) [6] was 28.8 and the % of OG1RF cells bound to CIV; PI IgG 0.1 µg/ml (% of cells bound) [6] was 28.9. The % of OG1RF cells bound to CIV; PI IgG 1 µg/ml (% of cells bound) [6] was 25.9, the % of OG1RF cells bound to CIV; PI IgG 10 µg/ml (% of cells bound) [6] was 26.6 and the % of OG1RF cells bound to CIV; PI IgG 100 µg/ml (% of cells bound) [6] was 26. For the same molecule, the % of OG1RF cells bound to LN; PI IgG 0.001 µg/ml (% of cells bound) [6] was 30.2, the % of OG1RF cells bound to LN; PI IgG 0.01 µg/ml (% of cells bound) [6] was 31.4 and the % of OG1RF cells bound to LN; PI IgG 0.1 µg/ml (% of cells bound) [6] was 29.1. It also gave a % of OG1RF cells bound to LN; PI IgG 1 µg/ml (% of cells bound) [6] of 26.4, a % of OG1RF cells bound to LN; PI IgG 10 µg/ml (% of cells bound) [6] of 28.3 and a % of OG1RF cells bound to LN; PI IgG 100 µg/ml (% of cells bound) [6] of 32. The % of V583 cells bound to BSA; PI IgG 20 µg/ml (% of cells bound) [7] was 0.6, the % of V583 cells bound to CIV; PI IgG 20 µg/ml (% of cells bound) [7] was 33.6 and the % of V583 cells bound to LN; PI IgG 20 µg/ml (% of cells bound) [7] was 27.6. It also gave a % of MC02152 cells bound to BSA; PI IgG 20 µg/ml (% of cells bound) [8] of 0.5, a % of MC02152 cells bound to CIV; PI IgG 20 µg/ml (% of cells bound) [8] of 26.5 and a % of MC02152 cells bound to LN; PI IgG 20 µg/ml (% of cells bound) [8] of 23.5.

“Recombinant Ace A domain of E. faecalis OG1RF (His-tagged, pBAD/HisA, TX5254)” was tested, and the EC50 (read off the curve) (Collagen type I (CI)) was 10 µM and the EC50 (read off the curve) [9] was 7 µM.

B1: Recombinant E. faecalis EF1 Ace A domain (N-terminal His6-tag fusion, from pQE-30) (other)
chain: MRGSHHHHHHGSELSKSSIVDKVELDHTTLYQGEMTSIKVSFSDKENQKIKPGDTITLTLPDELVGMTENDGSPRKINLNGLGEVFIYKDHVVATFNEKVESLHNVNGHFSFGIKTLITNSSQPNVIETDFGTATATQRLTIEGVTNTETGQIERDYPFFYKVGDLAGESNQVRWFLNVNLNKSDVTEDISIADRQGSGQQLNKESFTFDIVNDKETKYISLAEFEQQGYGKIDFVTDNDFNLRFYRDKARFTSFIVRYTSTITEAGQHQATFENSYDINYQLNNQDATNEKNTSQVKNVFVEGEASGNQNVEMPTEESLDIPLETIEEWEPKTPTSEQATETSEKTD
notes: Residues 32-367 are counted from nucleotides 94-1101; also called recombinant Ace A domain
Molecule B1 has a Kd [10] of 48 µM.

B2: Ace of E. faecalis strain OG1RF (native; on 46°C grown cells and in mutanolysin extracts) (other)
chain: ELSKSSIVDKVELDHTTLYQGEMTSIKVSFSDKENQKIKPGDTITLTLPDALVGMTENDGSPRKINLNGLGEVFIYKDHVVATFNEKVESLHNVNGHFSFGIKTLITNSSQPNVIETDFGTATATQRLTIEGVTNTETGQIERDYPFFYKVGDLAGESNQVRWFLNVNLNKSDVTEDISIADRQGSGQQLNKESFTFDIVNDKETKYISLAEFEQQGYGKIDFVTDNDFNLRFYRNKARFTSFIVRYTSTITEAGQHQATFENSYDINYQLNNQDATNEKNTSQVKNVFVEGEASGNQNVEMPTEESLDIPLETIDEWEPKTPTSEQATETSEKTGATETAESSQPEVHVSPTEEENPDEGGTLGTIEPIIPEKPSVTTEENGVTETAEGSQPEVHVSPTEEENPDESETLGTITPIIPEKPSVTTEENGVTETAEGSQPEVHVSPTEEENPDESETLGTITPIIPEKPSVTTEENGATETAESSQPEVHVSPAEEENPDESETLGTITPIIPEKPSVTTEENGTTETAESSQPEVHVSPTEEENLDESETLGTIEPIIPEKPSVTTEENGTTETAESSQPEVHVSPTKEITTTEKKQPSTETTVEKNKNVTSKNQPQILNAPLNTVKNEGSPQLAPQLLSEPIQKLNEANGQRELPKT
In the case of B2, the “fold decrease of adherence to LN in ace mutant TX5256 against OG1RF” value [11] is reported as 32.9 fold.
